Experimental findings from patent US20250313635A1, “ANTI-INTEGRIN ANTIBODIES AND USES THEREOF” (Merck Sharp & Dohme LLC, priority 2022, published 2025) are described below.

Test [1] deals with human Fibronectin (R&D Systems 1918-FN) (human) (UniProt P02751). The test can be described thus: AlphaLISA integrin-ligand binding, ligand at 1.0 nM. A general note: Alpha assays give light when donor and acceptor beads are brought close together.
In test [2] the target is human Vitronectin-GST tagged (EMD Millipore 08-126) (human) (UniProt P04004). The test is described as follows: AlphaLISA integrin-ligand binding, ligand at 10.0 nM.
For test [3] the target is unchanged. The test is described as follows: AlphaLISA integrin-ligand binding, ligand at 1.0 nM.
Test [4] addresses human LAP (R&D system 246-LP) (human) (UniProt P01137). The test is described as follows: AlphaLISA integrin-ligand binding, ligand at 0.5 nM.
For test [5] the target is unchanged. The test is described as follows: AlphaLISA integrin-ligand binding, ligand at 3.0 nM.
The target in test [6] is mouse fibronectin (Abcam ab92784) (mouse) (UniProt P11276). The test is described as follows: AlphaLISA integrin-ligand binding, ligand at 2.5 nM.
The target is the same in test [7]. The test is described as follows: AlphaLISA integrin-ligand binding, ligand at 1.0 nM.
Test [8] concerns the target mouse Vitronectin (Abcam ab92727) (mouse) (UniProt P29788). The test can be described thus: AlphaLISA integrin-ligand binding, ligand at 5.0 nM.
Test [9] has the same target. The test can be described thus: AlphaLISA integrin-ligand binding, ligand at 2.5 nM.
Test [10] concerns the target mouse LAP-6His (Chem partner) (mouse) (UniProt P04202). The test is described as above.

Sequence of mouse LAP-6His (Chem partner) (mouse) (P04202 30-278 limits assumed): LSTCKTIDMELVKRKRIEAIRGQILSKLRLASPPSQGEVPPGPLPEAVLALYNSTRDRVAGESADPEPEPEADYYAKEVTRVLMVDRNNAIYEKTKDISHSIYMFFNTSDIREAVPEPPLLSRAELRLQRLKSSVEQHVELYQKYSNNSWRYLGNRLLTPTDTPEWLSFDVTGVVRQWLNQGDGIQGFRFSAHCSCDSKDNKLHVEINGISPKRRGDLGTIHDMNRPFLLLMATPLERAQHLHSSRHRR
Sequence of mouse Vitronectin (Abcam ab92727) (mouse) (P29788 20-478 limits assumed): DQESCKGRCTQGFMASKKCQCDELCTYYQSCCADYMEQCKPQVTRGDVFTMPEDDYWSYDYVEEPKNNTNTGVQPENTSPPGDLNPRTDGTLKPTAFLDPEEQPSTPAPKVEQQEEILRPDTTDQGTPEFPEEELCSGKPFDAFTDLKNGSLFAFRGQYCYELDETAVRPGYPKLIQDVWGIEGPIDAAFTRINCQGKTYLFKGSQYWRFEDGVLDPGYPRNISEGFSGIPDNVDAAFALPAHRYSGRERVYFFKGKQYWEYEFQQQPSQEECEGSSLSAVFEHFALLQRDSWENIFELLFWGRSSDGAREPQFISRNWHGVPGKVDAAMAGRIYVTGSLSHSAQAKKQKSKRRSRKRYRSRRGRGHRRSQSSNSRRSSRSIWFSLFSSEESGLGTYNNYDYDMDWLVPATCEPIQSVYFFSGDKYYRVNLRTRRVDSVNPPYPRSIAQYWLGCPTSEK
Sequence of human Fibronectin (R&D Systems 1918-FN) (human) (P02751 other isoform, or with tags, fused parts or gaps limits assumed): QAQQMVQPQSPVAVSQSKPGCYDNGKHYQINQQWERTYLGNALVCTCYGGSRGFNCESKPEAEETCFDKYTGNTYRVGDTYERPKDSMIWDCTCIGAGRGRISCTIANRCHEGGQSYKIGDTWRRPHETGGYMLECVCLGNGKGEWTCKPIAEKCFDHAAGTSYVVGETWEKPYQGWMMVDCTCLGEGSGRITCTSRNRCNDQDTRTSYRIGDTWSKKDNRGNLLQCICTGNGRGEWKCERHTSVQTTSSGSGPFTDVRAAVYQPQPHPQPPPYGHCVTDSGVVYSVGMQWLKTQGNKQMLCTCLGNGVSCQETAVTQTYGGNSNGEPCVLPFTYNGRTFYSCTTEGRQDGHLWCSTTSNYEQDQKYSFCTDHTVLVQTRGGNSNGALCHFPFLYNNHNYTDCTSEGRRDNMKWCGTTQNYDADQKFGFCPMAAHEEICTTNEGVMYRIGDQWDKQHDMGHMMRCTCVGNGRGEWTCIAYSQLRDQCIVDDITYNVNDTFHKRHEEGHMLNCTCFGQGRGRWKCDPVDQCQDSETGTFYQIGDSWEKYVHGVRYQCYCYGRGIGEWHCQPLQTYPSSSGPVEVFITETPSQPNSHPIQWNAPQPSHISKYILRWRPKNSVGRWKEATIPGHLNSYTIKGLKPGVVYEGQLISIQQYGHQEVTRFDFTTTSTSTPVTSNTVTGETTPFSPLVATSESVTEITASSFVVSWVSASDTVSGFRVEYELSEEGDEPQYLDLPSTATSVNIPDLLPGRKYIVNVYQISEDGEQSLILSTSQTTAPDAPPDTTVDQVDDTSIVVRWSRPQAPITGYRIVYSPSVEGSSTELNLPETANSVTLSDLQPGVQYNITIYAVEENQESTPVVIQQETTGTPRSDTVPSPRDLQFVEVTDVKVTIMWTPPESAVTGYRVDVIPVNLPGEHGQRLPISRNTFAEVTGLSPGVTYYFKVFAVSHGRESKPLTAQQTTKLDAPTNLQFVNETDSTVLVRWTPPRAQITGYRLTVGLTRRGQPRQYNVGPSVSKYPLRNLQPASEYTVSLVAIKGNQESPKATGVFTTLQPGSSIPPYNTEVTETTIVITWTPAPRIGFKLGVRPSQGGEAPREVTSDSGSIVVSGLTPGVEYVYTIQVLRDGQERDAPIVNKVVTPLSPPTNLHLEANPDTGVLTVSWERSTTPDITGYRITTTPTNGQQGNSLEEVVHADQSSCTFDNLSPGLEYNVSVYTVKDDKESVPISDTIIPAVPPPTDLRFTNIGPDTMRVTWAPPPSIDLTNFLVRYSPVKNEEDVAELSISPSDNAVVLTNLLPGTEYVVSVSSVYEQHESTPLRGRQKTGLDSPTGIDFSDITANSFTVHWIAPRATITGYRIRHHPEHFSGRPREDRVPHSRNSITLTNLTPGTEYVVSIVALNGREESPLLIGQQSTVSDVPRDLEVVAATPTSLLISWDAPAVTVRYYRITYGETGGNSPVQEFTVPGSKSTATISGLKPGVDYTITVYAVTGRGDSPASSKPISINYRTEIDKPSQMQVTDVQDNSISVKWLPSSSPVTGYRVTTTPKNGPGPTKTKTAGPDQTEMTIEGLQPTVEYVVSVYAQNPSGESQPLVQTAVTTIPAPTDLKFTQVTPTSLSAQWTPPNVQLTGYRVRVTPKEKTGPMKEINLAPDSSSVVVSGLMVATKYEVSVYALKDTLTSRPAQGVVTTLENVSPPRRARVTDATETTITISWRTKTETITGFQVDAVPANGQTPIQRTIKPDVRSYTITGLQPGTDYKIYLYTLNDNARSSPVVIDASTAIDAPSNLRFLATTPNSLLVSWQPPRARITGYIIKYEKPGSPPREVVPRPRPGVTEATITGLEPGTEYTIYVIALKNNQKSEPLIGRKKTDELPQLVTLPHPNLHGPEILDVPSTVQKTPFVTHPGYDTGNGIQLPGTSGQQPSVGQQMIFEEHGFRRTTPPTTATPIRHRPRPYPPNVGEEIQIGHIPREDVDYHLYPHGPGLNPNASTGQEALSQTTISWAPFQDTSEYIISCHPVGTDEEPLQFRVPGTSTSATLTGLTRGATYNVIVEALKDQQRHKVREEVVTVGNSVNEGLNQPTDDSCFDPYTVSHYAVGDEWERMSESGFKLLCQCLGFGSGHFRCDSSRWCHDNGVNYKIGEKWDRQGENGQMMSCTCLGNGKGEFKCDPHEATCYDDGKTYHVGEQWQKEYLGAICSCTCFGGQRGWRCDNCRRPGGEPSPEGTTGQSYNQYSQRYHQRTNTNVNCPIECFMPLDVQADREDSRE

Turning to “recombinant human αvβ1 integrin extracellular domains (from UniProt P06756 1-992; P05556 1-728) (receptor)”, in test [1], the Integrin EC80 (batch dependent) came to 1.4 nM. Take “recombinant human αvβ3 integrin extracellular domains (from UniProt P06756 1-992; P05106 1-718) (receptor)”: in [2], the Integrin EC80 (batch dependent) amounted to 3 nM. Take “recombinant human αvβ5 integrin extracellular domains (from UniProt P06756 1-992; P18084 1-719) (receptor)”: in test [3], the Integrin EC80 (batch dependent) is 2.5 nM. “recombinant human αvβ6 integrin extracellular domains (from UniProt P06756 1-992; P18564 1-709) (receptor)” gave an Integrin EC80 (batch dependent) in [4] of 0.1 nM. Turning to “recombinant human αvβ8 integrin extracellular domains (from UniProt P06756 1-992; P26012 1-684) (receptor)”, in test [5], the Integrin EC80 (batch dependent) was found to be 1 nM. In test [6], “recombinant mouse α5β1 integrin extracellular domains (from UniProt P11688 1-999; P09055 1-728) (receptor)” registered an Integrin EC80 (batch dependent) of 1 nM.

On to “recombinant mouse αvβ1 integrin extracellular domains (from UniProt P43406 1-988; P09055 1-728) (receptor)”, for which, in test [7], the Integrin EC80 (batch dependent) was found to be 4.3 nM. The substance “recombinant mouse αvβ3 integrin extracellular domains (from UniProt P43406 1-988; O54890 1-717) (receptor)” had an Integrin EC80 (batch dependent) in [8] of 3 nM. Substance “recombinant mouse αvβ5 integrin extracellular domains (from UniProt P43406 1-988; O70309 1-719) (receptor)” showed an Integrin EC80 (batch dependent) in [9] of 0.6 nM. The substance “recombinant mouse αvβ6 integrin extracellular domains (from UniProt P43406 1-988; Q9Z0T9 1-706) (receptor)” registered an Integrin EC80 (batch dependent) in test [10] of 1.4 nM. In [10], “recombinant mouse αvβ8 integrin extracellular domains (from UniProt P43406 1-988; Q0VBD0 1-679) (receptor)” displayed an Integrin EC80 (batch dependent) of 1 nM.
